For this series, the target named is DNA polymerase mu (Polμ) wild type (Homo sapiens, UniProt Q9NP87 1-494). In words: EMSA. (In general: Mobility shift assays separate free from complexed probe on a gel.)
DNA polymerase mu (Polμ) wild type, sequence (Q9NP87 whole entry): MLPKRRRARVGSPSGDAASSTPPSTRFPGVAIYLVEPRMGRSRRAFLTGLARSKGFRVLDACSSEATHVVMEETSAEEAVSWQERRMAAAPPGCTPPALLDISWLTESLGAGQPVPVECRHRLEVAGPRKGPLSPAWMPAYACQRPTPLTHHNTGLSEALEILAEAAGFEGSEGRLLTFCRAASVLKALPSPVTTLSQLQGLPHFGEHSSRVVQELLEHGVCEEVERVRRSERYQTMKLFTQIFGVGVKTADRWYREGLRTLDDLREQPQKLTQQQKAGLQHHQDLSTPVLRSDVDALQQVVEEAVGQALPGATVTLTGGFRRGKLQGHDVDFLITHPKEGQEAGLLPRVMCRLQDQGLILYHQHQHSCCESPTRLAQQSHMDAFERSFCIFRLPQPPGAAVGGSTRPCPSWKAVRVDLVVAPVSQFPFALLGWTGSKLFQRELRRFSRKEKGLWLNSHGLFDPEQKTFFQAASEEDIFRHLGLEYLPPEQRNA

B1: Blunt (P19+T19) (dsDNA)
DNA 1: GATCACAGTGAGTACAATA
DNA 2: TATTGTACTCACTGTGATC
For the molecule B1, the binding result is on record as “no binding”.

The values are drawn from article PMC1636348.
